Source: paper PMC3855486, “New Insights into the Phylogeny and Molecular Classification of Nicotinamide Mononucleotide Deamidases” (PLoS ONE, 2013)

Substrate: NC(=O)c1ccc[n+]([C@@H]2O[C@H](COP(=O)(O)O)[C@@H](O)[C@H]2O)c1
Assay: HPLC, decrease of NMN peak area
Type: biochemical, Oceanobacillus iheyensis
Conditions: 50 mM phosphate buffer pH 7.5, 37 °C, Michaelian, NMN 0.01-1 mM

B1: OiPncC (Oceanobacillus iheyensis HTE831) (protein)
chain: MKNYQAEIVAVGTELLLGQIANTNAQWLSEKLATYGINMYNHTVVGDNLERVEQAFQLAQSRSNIIIVTGGLGPTADDLTREGFQQMTGLPLVEDKESMEKIEGFFQNRGRTMTPNNRKQARVFEGSTVLNNKAGMAPGMYVHYQSCHWFFLPGVPREMKHISQEELFPFLEKVTGKQRIIQSVVLKFIGIGESTLEHTLSDLIEKQTNPTIAPLAQDQAVVIRLTARGETKQEAEAMLEQTKKLILARVGEHYFGENEESIEDIVVQQLQDLGYSISAAESITGGMFSQRLVSVTGASNVFAGSFITYQSRIKEEVLEVPSEIIHSQGVVSRACSDAMASNVTRKIQTNLGISFTGIAGPDEQEGKPVGTVYISIADGDEVVVSKQFNFTGNRNHIRDRACLKGFELIYQYLKSKS
notes: full length, 417 residues (gene misprinted as 417 bp), MocF-CinA two-domain; C-terminal His6 (pET24b), E. coli Rosetta2(DE3)
Question: With B1 as the protein, how does the Km read?
Answer: The Km was 180 ± 20 µM.

Question: And the kcat?
Answer: Its kcat is 0.38 ± 0.01 s⁻¹.
